# Assay results published in a protein production outcome set (Wang et al. 2014).
# Assay: label from the status in PepcDB records
row,Sequence,protein production
1,MNANQFLKAVSQLQGWRECAFLLALAERSFPNYALFADAVGLKTGGKMRQLLDLAWDMLQKDVADAAIPQLLSKLETLCPNVDEYDAYGVYPAFDFCQLLEQALLNRLNPNKHRATEASQLATRTVMDFVEMSEGEGMDENELVRVFEHHPLLKDDKLFQRDTVMALYYYRTPKEAFLAELRAGAANDGVSNLGISLEG,not failed
2,MASMTGGQQMGRGSEEPNPNDGYDYMQHGFDWPGLQEGGTTKYPACSGSNQSPIDINTNQLMEPSSRSGTSAVSLNGLNVDGAQADGITLTNAKVDLEQGMKVTFDQPAANLPTIEIGGTTKSFVPIQFHFHHFLSEHTINGIHYPLELHIVMQEQDPADVATAQLAVIGIMYKYSENGDAFLNSLQTQIEGKIGDGTASYGDTGVSIDNINVKTQLLPSSLKYAGYDGSLTTPGCDERVKWHVFTTPREVTREQMKLFVDVTMGAHAGADVVNNRMIQDLGDREVYKYNY,not failed
3,MNREELFDVTVIGGGPAGLYSAFYSGLREMKTKIIEFQPQLGGKIHVYPEKMIWDIGGLLPVTGEKLIEQLVQQGLTFQPEVVLNTKIESIIRNKDGIFTLKTSTGEEHFSKTVIVATGSGILNPQKLSIEGAERFEVSNLNYTVKSLKRFKNKTVIISGGGNSAIDWANELEPIAKKVYLTYRKEELSGHEAQVKQLMNSSAECFFNTSITTLIAGDNHEAIEYVELTNHETGEVSQLAIDEVIINHGYERDITLLENSELDVAIIDNYYIAGNANSESSVDGLYAAGDILKHEGKLHLIAGAFQDAGNAVNKAKQFIQPDASEYGMVSSHNEVFKKRNRELIKQMMK,failed
4,MRGMAANQGERIRRRLSTGERREQLLSVGARLFSESPYDEVWIEQVAEIAGVSRGLLYHYFPNKRDFFAAVVERESERMLRMTAAVPGVPVREQLTAGLDAYLEYVRAHAHGYRAFHRADAAGDRAVRRVYQKALAAQERQILAALAADPEFGPAFEERGDVRLAVRGWLAFTTAVCLEWLRDPEPAREQVRDLCARALLGAVAP,not failed
5,MFELLFLLLPIAALYGWYIGRLSVKKEQESINNKFSRDYVTGLNFLLSNQQEKAVDLFLSMLQKQESENQIATESQFEAELTLGNLFRSRGEVDRALRIHQALDSSLNYSIEQKLLAKQQLAKDFMAAGFYDRAENYYILLLDEPEFAVNSLTQLMVLYQKTNEWKKAINVAEKLLKIDPKTDRIPLSHYYCEYAQAIKSEDEDLYLRLLGKALEYSPLCTRASMLLGDYYLAQGQFSQALTHFEHILVQDPDYISEVLHNIKTCHAALHDFINYELFLIRSNQVKHNSSVDIALAELIEQKDGLIAAHSKLYQQLSKYPSMLIFHRFIYYQINEAEEGSAKESLVLLHNMVGARIKKSFQYRCLNCGYQSYRLSWYCPSCRQWEQIKPINGIDSY,failed
6,MGVATMVTDKYQKCIDACNRCSQACYECFKACLNEPDVNARRTCISILFECAQMCQMSSALMSMDAQFAIDHCKLCSVICDKCAQECSMFQDPHCQKCANECRTCSNECRMMSGMLEHHHHHH,not failed
7,MPEISPYVTKTEVQLMMAGLDYRKTNGSRDTAPKGQLPWIVDAAQAIADSTFIRVHIERKYDVDLDFGLTGRERAQAWAIERMIENQLGWVSTYFRFLEPANFERGPARAFDQAPGHLRDELRQGLREAVAANIRAVGVGRHLREEVAWLGGLSLRALDELLEDKAYLMRDAYPVGVDATAFAMLAAIMTPFFDSPLRRQAERYPRLVAYVGRMMERFYPAHPWGLRQAA,failed
8,MYLKRSDGPSPGTLSLAARLTVLSTLATTGVLLFAIVFQFLALVSDLEFEDNDFIIDKIRVIEAIIVRYPEDRVHLEQEVQWEGSMREDSRYLVRIADARKNIIMETRGMDRIAPPAMFPRPARDTHAIGRGKKLKTPEGRVYLVNAAWTDGGRAPDSRQIQVALDVTEEEEMLEGYKQKMAFVFLAGLFLSAGLNVVVVRRGLRPLVQLTETAGRIDVTTLHERIDARVWPRELARFAAAFDAMLTRLESSFERLESSSANLAHEIRTPLNILRGEAEVTLSRARSPEEYRRVIESSLEEYERLSRLIDNILFLARAEQRIEPVPLDAGHELELLQDYYGTLAEEKGIAISCTGEGTISADPLLFQRAVGNVLSNAIRYTPAGGTITVSIDRADDGAALLTVIDTGIGISADDLPRVFDRFYRSSEARTLNAQGTGLGLAIVRSIMELHRGSVTIDSAPGRGTAVTLRFPLASQ,failed
9,MDNKKLFVFIKYFTLVFMIVGIIFGGKEFNAQNITLMLILIINHQLRTFSLNKYIHKIISFILEIVLVVICNFWISGYLFTYLILLAIDANVMFKKFLASTFNVVIILIGVYFSFNYSLNYKIMNLGVSIIIIAVFYFNKYENEKKIEAQDLYDRLRISEEKLKKANRDLEMYASSVEELTLLRERNRISREIHDSVGHSLSTMVIQLGAIEKIIRKAPEKAELLTKNLRKFTQKSLDEVRAAVRAIKPKEFEEYEGILSIEELISNFKKMANIDVRLAFTKEKWSLNSDQSFVLYRIVQEFLSNSARHGRASRVDVIMAFSEKNLLVTLKDNGQGCQSIIEGVGMKSMRERVKELGGYFEYKTAPYEGFTVKIELAKREKLKVYSGGENNG,failed
10,MDHKKVAERVIKDVGRDNIIAGAHCATRLRLVLKDDSKVDQKALDNDPDVKGTFKTNGQYQVIIGPGDVNDVYDEFIKITGLKELSTDDLKKVAAEGQKKNPIMDFIKLLSDIFVPIIPALVAGGLLMALNNFLTSPGLFGPKSVVQMAPNVAGISSMIQVMSAAPFIFMPILVGMSAAKRFGANQFLGATIGMIMTTPGLGGATKFWDIFGLHVAQTNYQYQVIPVLVAVWVLSIFEKYFHKHLPSAVDFTFTPLLSIMITGFLTFTIIGPVFKGVSDAITNAIVWLYDTTGAFGMGVFGLSYSAIVTTGLHQSFPAVETQLLAAFAKNPASSGDFIFVTACMANVAQGAATFAVYFLTKNKKMKGLASSSGVSALLGITEPALFGVNLKYKFPFFCALIGSGVAAAFAGLMHVTAAALGSAGFLGFLSIYPRTIPMWVVSVAISFAVSFILTYVYGKSHLKEEVAEQDVPVNDATDYAEETQKAEKIGKEQLALKDEIIYSPVDGTPESLTKVNDQVFSAKLMGDGAAVIPSDGTIYAPVTGTVTIAYETKHAYGIKSDDGAEVLIHIGLDTVNLKGEHFESFVKQGQRVEKGDKLGSVDLDAVKKAGYDTTVMVVITNTANYANVQRITDAGDKHGDKLIAVTAHE,failed
11,MAKTDARSPRTERGTIALQDASQDIWDKKYRLKSKDGTPVDASVDGTWQRVARALADVEDKASREHWYGRFLWALRNGAIPAGRIISNAGALGHKPATSTINCTVSGTIQDSMDNILEKVHEAGLTLKAGCGIGYEFSTLRPRGAYVSGAGAYTSGPLSFMDIYDKMCFTVSSAGGRRGAQMGTFDVSHPDVREFIRAKREDGRLRQFNLSLLITDQFMQAVEQDADWPLVFPVHVKERDEIDLDDPNAVVWREWPIQDDYVQRADGLVACKVYGQVRARHLWDMIMVSTYDYAEPGFILIDRVNELNNNWWCEAIRATNPCGEQPLPPYGSCLLGSVNLTCFVEQPFGDEARFDWDRFREVVRVFTRMLDNVVEINGLPLEQQRQEILGKRRHGMGFLGLGSTLTLLKLRYGSPEACVFTEEVAREMALVGWEVALELAREKGPAPILAQDYEVTAEMLRKRPEMAADGYKAGDRIRGSVLHAKYSRYMQRVAEHAPELIEALAETGARFTHHSSIAPTGTISLSLANNASNGIEPSFAHHYSRNLIREGRKTKEKVEVYSYELLAYRTLVNAQALPDSDDPARRLPDYFITADSVTPAQHMDIQAAAQKWVDSSISKTANVPTDYPFEDFKDIYRYAWHQGLKGCTTFRFNPEAFQGVLVKESDLEKTRYRFELEDGSVVEFKGNEQVEYDGEIHTAANLFDALKEGYYGK,failed
12,MEQLSDSDHRDSADATTSSCQSTTAEDGQCGGGGEAMARGLSAMLESVIKDFDSKALDTLNSQDELSGSLDRLVQDYAQINPIDPIKFLNHYIAIGLTKLLKN,failed
13,MTPEQLMSLRATFRSPRRLLTESLAGLVVALALIPEAIAFSVIAGVDPRIGLFASFTMGVVTAIVGGRPAMISAATGAVALVIAPVMKEHGLDYLIATIILAGVFQIILAVLGVTKLMRFIPRSVMIGFVNALAILVFMSQMPELFDVPWMVYPIVVVGLVIVFGLPRITTAIPAPLVAIVAITLVTVLGNVDVPTVSDKGELPDSLPGFFLPNVPLNLETFQIIAPFALSMALVGLLESLMTAKLVDDITDTRSNKTRVSWGQGAANIVTGFLGGLGGCAVIGQTMINVKGSGARSRLSTFLAGVFLLILVVVLGDVVGMIPMAALVAVMIFVSLITFDWHSIRPSTLKRLPKSETAVMLITVAAVVATHNLAVGVGVGVVTAMVLFARRVAHFATVERTELELNGERVATYTVDGELFFASSNDLYTQFDYAKDSSDGIDRVIIDLHGSHIWDASTVAVLDSVTEKYRNHGREVEFIGLNEASVRMRERLAGKLNS,failed
14,MREPYYKKLLGIKNYLIRKNYPEELEILIPKYVEENKELRGCIDCLSCLSVCPAREVSDYPGPTFMRQLARFAFDKRDEDGREITAYFENIYNCTTCAKCVEVCPKEIDIVHRAIEKLRALAFSKGYLEHHHHHH,failed
15,LSHGDFELAVPGGPVAAYYAAPAGREQLPIVLVVQEIFGLHEHIKDVCRRLAHDGYLAVSVNLYQRQGDASRYDNIPGLVAELVSKVPDEQVHADLDASLAWAAAHGGDGARVGVTGFCWGGRTTWMYAARNPAVKAGVAWYGRLSSGHGPLIKQVPLDVAGSLHAPVLGLYGGKDESIPLDDVRAMEARLQQGGAPAQASRIVVYPQAGHAFLADYRPSYRAADAQDGWRRMLDWFALYL,failed
16,MNRNLLYMILRLIFVIVATVAGFYVLLYMSGLIYPFIIAFAFAYLINPVVNFLNQKLQFPRALAVLVSLILVFGAIVGLVTYLVTEAISATTYLLQLVTVKFPDIVTFAQQFALNHIMPLYDDLISKFNHLGEPQRYTITQNIQNLGTEATTQMKELLTAIISGLTNFISALPTTLTVLVFILLATFFISYDWHRLAQKARKLLPNRVHGYGKTIFVDLRKALFGFVKAQLTLVSMTTVIVLIGLLILRVPYAITIAIITGVVDLLPYLGTGAVFVPWVIYVFFTGDTAFAIGLLILYIVVIVQRQIMEPKVLSSNIGLDPLATLVALFVGFKLFGFLGLIIGPVTLVLLNTLHKANVFHDLWKYIKGSPSK,failed
17,MLKDNLKEWFGFDEFKEGQEEIIDSVLHGRHTLGILPTGSGKSLCYQLPTYILEKPTLIISPLISLMDDQVMQMKLKGETHVACVHSGMDEVEKRDNIKRLSKSRFIYLSPEYILQPHNFKYIAHINFGLIVLDEAHCLSEWGYDFRPHYALVGKIIHHFNSATVLALTATAPPQLETDLSHILSLKLNVVQKSMNRENISLQHYNFNDDEGKIEWLLPFLSNSGPTIIYVSSKKRCLELAQMIYDSGYLTGIYHGDLSYQERQTVQQQFFNNDIPVIVATSAFGMGINKKDIRTVIHFHLSSSPSNYLQEIGRAGRDGKQSQAISLFQPDDSFILETLLFTDIITDDDITMFETGNHLPDEKEKILSTLNIQFTFSQLKDIFHQSYQRKRLGYMRMMGYTNLDQCRRKYLLEFFGEHPQSPKQCCDQDSRLEPIQILNRKKVKRKLSFNEKLYNLFET,failed
